The values below come from patent publication US20250236644A1, “De Novo Designed Stimulus-responsive Two-state Hinge Proteins” (University of Washington, priority 2024, published 2025).

Assay [1] has as its system TAMRA-cs201B. Kind of assay: FP titration and kinetics, hinge vs TAMRA-cs201B. The settings on record: for binding in FP titration: 1 nM peptide cs201B, varying hinge, FIG. 10. The assay is classed as binding. The protocol:
(§1) All FP measurements were performed at 25° C. in 96-well plates (Corning 3686) using a Synergy Neo2™ plate reader and a 530/590 nm filter cube. The buffer for all FP measurements was 20 mM Tris-HCl, 100 mM NaCl, 0.05% v/v TWEEN20 at pH 8. Titrations were carried out in 96-well format, with 4 replicates per plate and 24 data points per titration (23 steps of two-fold serial dilution of hinges in the presence of TAMRA-labeled peptide at a constant concentration between 0.1 nM and 1 nM) with a final sample volume of 80 μl per well. Titration plates were incubated overnight at room temperature before measuring to ensure complete equilibration. The polarization signal S (as calculated by the Neo2™ software) was fitted to the equation
(§2) where fAB is the fraction of peptide that is bound, Atot is the absolute hinge concentration, Btot is the absolute peptide concentration, S0 is the baseline polarization of free peptide, and S1 is the change in polarization upon complex formation.
(§3) Fitting was performed using the scipy.optimize.curve_fit python function (53). Uncertainties for KD values are standard deviation errors calculated from the covariance matrix of the fits. In cases where the fitted KD was lower than the concentration of the labeled peptide Btot, we report the KD as KD<Btot.
(§4) For FP kinetics experiments a 2× peptide solution and 8 different 2× hinge solutions at different concentrations were prepared separately. 40 μl of each hinge solution were mixed with 40 μl peptide solution using a multichannel pipet and the measurement was started immediately after mixing. Polarization signals S at each concentration were fitted individually to the equation
(§5) where S0 is the amplitude, S1 is the polarization at equilibrium, kapp is the apparent rate constant, t is the time after start of the measurement, and t0 is the dead time between mixing and start of the measurement. For each hinge-peptide pair, the apparent rate constants for 8 different concentrations are fitted to the equation
(§6) where koff and kon are observed off- and on rates and Atot is the absolute hinge concentration.

Assay [2] deals with TAMRA-cs074B. Put plainly: Fluorescence polarization (FP) titration and kinetics, hinge vs TAMRA-cs074B. The assay is classed as binding. To be noted: 1 nM peptide cs074B, varying hinge; FIG. 10. On the procedure:
as §1, §2, §3, §4, §5, §6
In general terms: Polarisation of emitted light reports the rotation of a fluorescent probe.

Assay [3] concerns TAMRA-cs221B. Kind of assay: FP titration and kinetics, hinge vs TAMRA-cs221B. The assay is classed as binding. To be noted: for binding in FP titration: 1 nM peptide cs221B, varying hinge, FIG. 10; for peptide binding: FP; for kon: Effector TAMRA-cs221B, method FP. The protocol:
as §1, §2, §3, §4, §5, §6

The test system of assay [4] is original peptides fused to superfolder green fluorescent protein (sfGFP). Kind of assay: SEC binding experiments with original peptides fused to sfGFP. To be noted: FIG. 17C. The protocol:
Individual hinge and sfGFP-fused peptides or 3hb were diluted in 20 mM Tris pH 8, 100 mM NaCl and mixed at approximately 1:1 concentrations. 0.5-1 mL of the resulting samples were injected onto a Superdex™ 200 Increase 10/300 GL columns and the absorbance at 230 nm was used as a readout for binding. For sfGFP-fused peptides, 473 nm was also used as readout. Mixtures were at a total concentration of 2. μM or higher.

The test system of assay [5] is TAMRA-js007B. Put plainly: FP titration and kinetics, hinge vs TAMRA-js007B. Type of assay: binding. The protocol: as §1, §2
TAMRA-js007B, sequence (as listed by the source): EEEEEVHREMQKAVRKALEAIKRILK
Fitting was performed using the scipy.optimize.curve_fit python function (53). Uncertainties for KD values are standard deviation errors calculated from the covariance matrix of the fits. In cases where the fitted KD was lower than the concentration of the labeled peptide Btot, we report the KD as KD<Btot. […]

TAMRA-cs201B, sequence (as listed by the source): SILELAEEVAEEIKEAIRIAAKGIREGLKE
TAMRA-cs221B, sequence (as listed by the source): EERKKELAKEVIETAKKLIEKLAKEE
TAMRA-cs074B, sequence (as listed by the source): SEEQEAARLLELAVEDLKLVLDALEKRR

B1: cs201: designed hinge protein, SEQ ID NO:7 (protein)
chain: MSGDEEVQEAVERAEELREEAEELIKKARKTGDPELLRKALEALKEAVRAVREAIKRNPDNEEAIKTALRLARELRKVAKELIERARKTGDAELLKKALEAARVAVEAVRLAAEYNKENAEKMAELLVELAELAREVADVLIELAEKTGDPELLKKALEVLEEAVEAVRLAIEYDPDHEEAVETAKRLAEELRKVAELLEERAKETGDPELQELAKRAKEVADRARELAKKSNGSGSHHWGSTHHHHHH
Broadly, the kon is the second-order rate constant of association. For the molecule B1, the kon in assay [1] (Effector TAMRA-cs201B, method FP) amounted to 6700 M⁻¹ s⁻¹.

B2: csw20: cs201-derived hinge redesigned to bind peptide cs074B, SEQ ID NO:18 (protein)
chain: MSGMEEVKELVEKAEELAKEAEELIKKAKKTGNPELLKEALRKLKEAVELAKEAVELDPEHEEAIELLARLAEKLLEVAKLLIELAKKTGNPELLKEALRALKEAREALRLAAEHAPEDAKLLARLAARLAELALLIAKILIELAKKTGNPELLLKALKVLTLAVEAVEAALEADPRLKEAVRVAKELAEVLKELAKLAKELAKKTGNEELKEAAKEAEEVAKRAEELAREAEGSGSHHWGSTHHHHHH
As for B2, the “binding in FP titration” value in assay [1] is on record as “still binds”; in assay [2], “most strongly”; in assay [3], “weaker than the new target”.

B3: cs230: designed hinge protein, SEQ ID NO:12 (protein)
chain: MSGTKEEKERIERIEKEVRSPDPENILEAVRKALELFRENPSEEAKELLKRAIEAALRSEDERAILEALRAALEAYRQGAGDREGLLEAIRVAIRRAAESEDERAILEAVRAARILLEAERTEEAKELLRVAIERAKKSPDPEAQREAKRAEEELRKEDGSGSHHWGSTHHHHHH
Turning to B3, the “SEC binding experiment with sfGFP-fused original peptide” value in assay [4] was “higher-order peaks”.

B4: cs221_lockedX: cs221 variant with disulfide that locks state X, SEQ ID NO:19 (protein)
chain: MSGEMKEEIRRLAEELRERTKDEEVRELAREAARLAEESDDEEVKEVVKKALEAALKSKDEEVIRLLLLAAVCAAAAARSGSPEEKLEIAKKALELAMKSKDEEVIRLALLAAVLACRSDDEEVLKKVKEALEKAMESKDVEEIRERLREAVEVARAGSGSHHWGSTHHHHHH
Consider B4, for which the peptide binding result in assay [3] (oxidizing conditions (disulfide formed)) is “only weak residual binding”; in assay [3] (upon addition of reducing agent DTT), “fully restored”.

B5: cs221_V111L: hinge cs221 with point mutation V111L (protein)
chain: MSGEMKEEIRRLAEELRERTKDEEVRELAREAARLAEESDDEEVKEVVKKALEAALKSKDEEVIRLLLLAAVLAAAAARSGSPEEKLEIAKKALELAMKSKDEEVIRLALLAALLAARSDDEEVLKKVKEALEKAMESKDVEEIRERLREAVEVARAGSGSHHWGSTHHHHHH
For B5, the kon in assay [3] is 24300 M⁻¹ s⁻¹.

B6: cs221_lockedY: cs221 variant with disulfide that locks state Y, SEQ ID NO:20 (protein)
chain: MSGEMKEEIRRLAEELRERTKDEEVRELAREAARLAEESDDEEVKEVVKKALEAALKSKDEEVIRLLLCAAVLAAAAARSGSPEEKLEIAKKALELAMKSKDEEVIRLACLAAVLAARSDDEEVLKKVKEALEKAMESKDVEEIRERLREAVEVARAGSGSHHWGSTHHHHHH
B6: the kon in assay [3] amounted to 790000 M⁻¹ s⁻¹.

B7: cs221_A73E: hinge cs221 with point mutation A73E (protein)
chain: MSGEMKEEIRRLAEELRERTKDEEVRELAREAARLAEESDDEEVKEVVKKALEAALKSKDEEVIRLLLLAAVLAAEAARSGSPEEKLEIAKKALELAMKSKDEEVIRLALLAAVLAARSDDEEVLKKVKEALEKAMESKDVEEIRERLREAVEVARAGSGSHHWGSTHHHHHH
Take B7: the kon in assay [3] was found to be 1900 M⁻¹ s⁻¹.

B8: cs221: designed hinge protein, SEQ ID NO:10 (protein)
chain: MSGEMKEEIRRLAEELRERTKDEEVRELAREAARLAEESDDEEVKEVVKKALEAALKSKDEEVIRLLLLAAVLAAAAARSGSPEEKLEIAKKALELAMKSKDEEVIRLALLAAVLAARSDDEEVLKKVKEALEKAMESKDVEEIRERLREAVEVARAGSGSHHWGSTHHHHHH
Turning to B8, the kon in assay [3] was determined as 3400 M⁻¹ s⁻¹.

B9: cs221_V111L_A111T: state Y-stabilizing double mutant of hinge cs221 (protein)
chain: MSGEMKEEIRRLAEELRERTKDEEVRELAREAARLAEESDDEEVKEVVKKALEAALKSKDEEVIRLLLLAAVLAAAAARSGSPEEKLEIAKKALELAMKSKDEEVIRLALLAALLATRSDDEEVLKKVKEALEKAMESKDVEEIRERLREAVEVARAGSGSHHWGSTHHHHHH
Turning to B9, in assay [3], the kon stood at 76200 M⁻¹ s⁻¹.

B10: cs221_L66T: hinge cs221 with point mutation L66T (protein)
chain: MSGEMKEEIRRLAEELRERTKDEEVRELAREAARLAEESDDEEVKEVVKKALEAALKSKDEEVIRLLLTAAVLAAAAARSGSPEEKLEIAKKALELAMKSKDEEVIRLALLAAVLAARSDDEEVLKKVKEALEKAMESKDVEEIRERLREAVEVARAGSGSHHWGSTHHHHHH
Take B10: the kon in assay [3] is 2700 M⁻¹ s⁻¹.

B11: cs221_A114T: hinge cs221 with point mutation A114T (protein)
chain: MSGEMKEEIRRLAEELRERTKDEEVRELAREAARLAEESDDEEVKEVVKKALEAALKSKDEEVIRLLLLAAVLAAAAARSGSPEEKLEIAKKALELAMKSKDEEVIRLALLAAVLATRSDDEEVLKKVKEALEKAMESKDVEEIRERLREAVEVARAGSGSHHWGSTHHHHHH
For the molecule B11, the kon in assay [3] amounted to 27700 M⁻¹ s⁻¹.

B12: js007: designed hinge protein, SEQ ID NO:11 (protein)
chain: MSGSEEVNERVKQLAEKAKEATDKEEVIEIVKELAELAKQSTDPNLVAEVVRALTEVAKTSTDTELIQEIVKVLLELARRLTDPQLLLEVLKSIAELLKELAEKTGNETAKLAALVAQIAAEVVEMALRAEKTHPGSEIVKLAVELVQKVAEIVLIAAQLMLDKPNSDEVRKVLKEVEKVAREALKALREAKRHPDSQKARDEIKEASQKAEEVKERIERAQEGSGSHHWGSTHHHHHH
B12: the kon in assay [5] (Effector TAMRA-js007B, method FP) was 78000 M⁻¹ s⁻¹.

B13: csw13: cs201-derived hinge redesigned to bind peptide cs221B, SEQ ID NO:17 (protein)
chain: MSGNEEVKKLVEEAKKYLKEAEEYIKKAKKTGNEELLEKALKLLEKALELVKKAIELDPNNKEAIEQAVEIARALNEVAELLIEEAKKTGNEELLEKALEALEAANEALKLAIENNENDKELLAEIAVELAEVGVLLAEVLIEEAKKTGDPELLKLALEVLEAAVEALELALKLDPNNEEAVELAEEAAKLLEEVAKELKEEAKKTGDPELEKLAKEAEELAKRAKELAERQRGSGSHHWGSTHHHHHH
In the case of B13, the “binding in FP titration” value in assay [1] is recorded as “not binding”; in assay [5] (1 nM peptide js007B, varying hinge, FIG. 10) it was “not binding”; in assay [2], “not binding”; in assay [3] it was “specifically binds”.
